Consider three molecules from paper PMC10989752, “LipR functions as an intracellular pH regulator in Bacillus thuringiensis under glucose conditions”.

The series has as its target T1, LipR (Bacillus thuringiensis BMB171, UniProt A0A0G3DYA8 1-337).
T1 sequence: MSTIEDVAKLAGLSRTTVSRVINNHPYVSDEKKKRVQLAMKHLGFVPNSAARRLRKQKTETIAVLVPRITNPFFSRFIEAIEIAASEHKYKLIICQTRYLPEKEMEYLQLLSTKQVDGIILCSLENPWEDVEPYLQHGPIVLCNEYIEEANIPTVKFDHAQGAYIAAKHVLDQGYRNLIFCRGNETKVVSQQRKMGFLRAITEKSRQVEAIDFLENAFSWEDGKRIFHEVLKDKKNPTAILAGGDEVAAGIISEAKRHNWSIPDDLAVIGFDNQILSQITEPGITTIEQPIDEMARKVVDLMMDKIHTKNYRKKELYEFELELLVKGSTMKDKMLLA
Nature of the series: EMSA; LipR: 25 mM Tris pH 8.5-9, 150 mM NaCl, 10% glycerol; CcpA/AbrB: 50 mM Tris-HCl pH 7.5, 10 mM MgCl2, 1 mM DTT, 100 mM NaCl; 28 C, 25 min, 10 ul; 500 ng poly(dI-dC) when needed; 6% native PAGE, 0.5x TBE. To be noted: protein: recombinant, tags: C-terminal His (pET-28a), chain copies: 2.

B1: 18-bp minimal LipR site (dsDNA)
DNA 1: TAAGAAAACGTTTTCATG
DNA 2: CATGAAAACGTTTTCTTA
Regarding B1, the binding result (blunt) is on record as “binds”.

B2: D6 (dsDNA)
DNA 1: CAATTTAAGAAAACGTTTTCATG
DNA 2: CATGAAAACGTTTTCTTAAATTG
On to B2, for which the binding result is “binds”.

B3: 30-bp footprint fragment (dsDNA)
DNA 1: ATATAATCAATTTAAGAAAACGTTTTCATG
DNA 2: CATGAAAACGTTTTCTTAAATTGATTATAT
As for B3, the binding result was “binds”.
